{"source": "patent US10370647B2", "about": "(priority 2015, dated 2019)", "molecules": {"B1": {"name": "EGF (protein, UniProt P01133 23-1207, looked up)", "Pro-epidermal growth factor": "PQHWSCPEGTLAGNGNSTCVGPAPFLIFSHGNSIFRIDTEGTNYEQLVVDAGVSVIMDFHYNEKRIYWVDLERQLLQRVFLNGSRQERVCNIEKNVSGMAINWINEEVIWSNQQEGIITVTDMKGNNSHILLSALKYPANVAVDPVERFIFWSSEVAGSLYRADLDGVGVKALLETSEKITAVSLDVLDKRLFWIQYNREGSNSLICSCDYDGGSVHISKHPTQHNLFAMSLFGDRIFYSTWKMKTIWIANKHTGKDMVRINLHSSFVPLGELKVVHPLAQPKAEDDTWEPEQKLCKLRKGNCSSTVCGQDLQSHLCMCAEGYALSRDRKYCEDVNECAFWNHGCTLGCKNTPGSYYCTCPVGFVLLPDGKRCHQLVSCPRNVSECSHDCVLTSEGPLCFCPEGSVLERDGKTCSGCSSPDNGGCSQLCVPLSPVSWECDCFPGYDLQLDEKSCAASGPQPFLLFANSQDIRHMHFDGTDYGTLLSQQMGMVYALDHDPVENKIYFAHTALKWIERANMDGSQRERLIEEGVDVPEGLAVDWIGRRFYWTDRGKSLIGRSDLNGKRSKIITKENISQPRGIAVHPMAKRLFWTDTGINPRIESSSLQGLGRLVIASSDLIWPSGITIDFLTDKLYWCDAKQSVIEMANLDGSKRRRLTQNDVGHPFAVAVFEDYVWFSDWAMPSVMRVNKRTGKDRVRLQGSMLKPSSLVVVHPLAKPGADPCLYQNGGCEHICKKRLGTAWCSCREGFMKASDGKTCLALDGHQLLAGGEVDLKNQVTPLDILSKTRVSEDNITESQHMLVAEIMVSDQDDCAPVGCSMYARCISEGEDATCQCLKGFAGDGKLCSDIDECEMGVPVCPPASSKCINTEGGYVCRCSEGYQGDGIHCLDIDECQLGEHSCGENASCTNTEGGYTCMCAGRLSEPGLICPDSTPPPHLREDDHHYSVRNSDSECPLSHDGYCLHDGVCMYIEALDKYACNCVVGYIGERCQYRDLKWWELRHAGHGQQQKVIVVAVCVVVLVMLLLLSLWGAHYYRTQKLLSKNPKNPYEESSRDVRSRRPADTEDGMSSCPQPWFVVIKEHQDLKNGGQPVAGEDGQAADGSMQPTSWRQEPQLCGMGTEQGCWIPVSSDKGSCPQVMERSFHMPSYGTQTLEGGVEKPHSLLSANPLWQQRALDPPHQMELTQ", "modifications": "Pro-epidermal growth factor"}}, "key": {"KFtx series": {"system": "KFtx series", "format": "cell-based", "conditions": "72 hours"}, "ERK": {"system": "ERK", "experiment": "Change in pERK/tERK by EGF stimulation (In-Cell ELISA)", "format": "cell-based", "conditions": "all cells (Low, UCA1 Low, Empty Low, KFtx); 0.2 ng/μl EGF, 30 minutes; 10% or 0.5% FBS", "procedure": "The KFtx series (Low, UCA1 Low, Empty Low, and KFtx) were seeded at a cell density of 6×10^3/well in 10% FBS-containing RPMI on a 96-well plate, and were then cultured at 37° C. for 12 hours. Thereafter, the medium was exchanged with RPMI containing 10% FBS or 0.5% FBS. The cells were further cultured at 37° C. for 24 hours, and the medium was then exchanged with another one, to result in an EGF concentration of 0.2 ng/μl. After 30 minutes of EGF stimulation, tERK (total-ERK) and pERK (phosphorylated-ERK) were measured using Pierce Colorimetric In-Cell ELISA Kits (n=3). […] In addition, it was confirmed that, in all cells, pERK was activated by EGF stimulation and the percentage of the pERK was increased."}}, "data": [{"molecule": "B1", "values": [{"measurement": "replication ability of the vaccinia virus by EGF stimulation", "setting": "KFtx series", "result": "not enhanced"}, {"measurement": "percentage of the pERK", "setting": "ERK", "result": "increased"}]}]}
